From US20240318160A1

Experiments:
Assay in all cases: TAL and PAL enzyme kinetics
N[C@@H](Cc1ccccc1)C(=O)O [1] = type: biochemical, Brachypodium distachyon; conditions: other: PAL assay (L-Phe), pH 8.5, 30° C.
Description: (§3) The kinetic parameters of the recombinant enzymes were determined using HPLC. Reaction mixtures containing 100 mM Tris-HCl (pH 8.5), 1% glycerol, and purified enzyme (0.15 μg for PAL assay and 1 μg for TAL assay) in a 50 μl total volume were preincubated for 3 min at 30° C. […] After 10 min and 20 min incubations for PAL and TAL assay, respectively, at 30° C., the reaction was terminated by addition of 6N acetic acid (10 μl). […] The products were quantified using calibration curves generated using authentic standards. Non-linear hyperbolic regression analyses were conducted using the Excel Solver tool to calculate Km and Vmax values.

[2] = system: N[C@@H](Cc1ccc(O)cc1)C(=O)O; type: biochemical, Arabidopsis thaliana; conditions: other: TAL assay (L-Tyr), pH 8.5, 30° C.
Description: (§4) A mixture containing 100 mM Tris-HCl (pH 8.5), 1% glycerol, and purified enzyme in a total volume of 50 μl was preincubated for 3 min at 30° C. […] The reactions were terminated by addition of 6N acetic acid (10 μl).
as §3
N[C@@H](Cc1ccccc1)C(=O)O [3] = type: biochemical, Arabidopsis thaliana; conditions: other: PAL assay (L-Phe), pH 8.5, 30° C.
Description: as §4, §3

[4] = system: N[C@@H](Cc1ccc(O)cc1)C(=O)O; type: biochemical, Brachypodium distachyon; conditions: other: TAL assay (L-Tyr), pH 8.5, 30° C.
Description: (§1) All substrate solutions were prepared with 0.01 N NaOH to increase the solubility of L-Tyr. A mixture containing 100 mM Tris-HCl (pH 8.5), 1% glycerol, and purified enzyme in a total volume of 50 μl was preincubated for 3 min at 30° C. PAL and TAL reactions were started by addition of 50 μl of 1 mM substrate (L-Phe or L-Tyr, respectively) and were incubated at 30° C. for 20 min unless otherwise noted. The reactions were terminated by addition of 6N acetic acid (10 μl).
(§2) The kinetic parameters of the recombinant enzymes were determined using HPLC. Reaction mixtures containing 100 mM Tris-HCl (pH 8.5), 1% glycerol, and purified enzyme (0.15 μg for PAL assay and 1 μg for TAL assay) in a 50 μl total volume were preincubated for 3 min at 30° C. PAL and TAL reactions were started by addition of 50 μl substrate solution prepared with 0-4 mM L-Phe and 0-2 mM L-Tyr. After 10 min and 20 min incubations for PAL and TAL assay, respectively, at 30° C., the reaction was terminated by addition of 6N acetic acid (10 μl). […] The products were quantified using calibration curves generated using authentic standards. Non-linear hyperbolic regression analyses were conducted using the Excel Solver tool to calculate Km and Vmax values.

N[C@@H](Cc1ccccc1)C(=O)O [5] = type: biochemical, Brachypodium distachyon; conditions: other: PAL assay (L-Phe), pH 8.5, 30° C.; remark: listed apart in the source
Description: as §1, §2

[6] = system: N[C@@H](Cc1ccc(O)cc1)C(=O)O; type: biochemical, Sorghum bicolor; conditions: other: TAL assay (L-Tyr), pH 8.5, 30° C.
Description: as §1, §2

N[C@@H](Cc1ccccc1)C(=O)O [7] = type: biochemical, Sorghum bicolor; conditions: other: PAL assay (L-Phe), pH 8.5, 30° C.
Description: as §1, §2

N[C@@H](Cc1ccccc1)C(=O)O [8] = type: biochemical, Sorghum bicolor; conditions: other: PAL assay (L-Phe), pH 8.5, 30° C.; remark: listed apart in the source
Description: as §3

Arabidopsis thaliana AtPAL1 variant F144H (AtPAL1^F144H), SEQ ID NO: 261 (Arabidopsis thaliana; F144H), sequence (chain, as listed by the source F144H F144H F144H): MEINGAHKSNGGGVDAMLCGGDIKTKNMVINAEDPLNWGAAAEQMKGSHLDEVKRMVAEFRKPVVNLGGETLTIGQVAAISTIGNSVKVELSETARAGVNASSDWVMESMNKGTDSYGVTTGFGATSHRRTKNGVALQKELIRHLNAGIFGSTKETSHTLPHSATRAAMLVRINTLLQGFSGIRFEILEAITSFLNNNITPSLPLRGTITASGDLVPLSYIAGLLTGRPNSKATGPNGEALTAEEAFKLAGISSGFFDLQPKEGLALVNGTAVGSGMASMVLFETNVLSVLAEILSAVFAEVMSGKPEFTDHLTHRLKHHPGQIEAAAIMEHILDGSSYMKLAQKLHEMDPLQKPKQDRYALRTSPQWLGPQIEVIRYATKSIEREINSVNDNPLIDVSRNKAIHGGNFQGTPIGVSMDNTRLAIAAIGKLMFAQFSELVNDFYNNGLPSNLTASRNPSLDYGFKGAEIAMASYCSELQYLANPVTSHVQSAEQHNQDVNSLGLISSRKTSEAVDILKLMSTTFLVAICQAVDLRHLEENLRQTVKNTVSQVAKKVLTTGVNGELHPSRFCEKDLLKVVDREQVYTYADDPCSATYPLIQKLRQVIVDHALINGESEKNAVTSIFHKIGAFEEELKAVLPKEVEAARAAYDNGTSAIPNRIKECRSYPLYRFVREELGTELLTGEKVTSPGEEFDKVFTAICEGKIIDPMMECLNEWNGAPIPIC
Arabidopsis thaliana AtPAL1 variant S114I (as printed in Table 3; AtPAL1^S116I, SEQ ID NO: 260, elsewhere) (Arabidopsis thaliana; S116I), sequence (chain, as listed by the source S114I S116I S116I): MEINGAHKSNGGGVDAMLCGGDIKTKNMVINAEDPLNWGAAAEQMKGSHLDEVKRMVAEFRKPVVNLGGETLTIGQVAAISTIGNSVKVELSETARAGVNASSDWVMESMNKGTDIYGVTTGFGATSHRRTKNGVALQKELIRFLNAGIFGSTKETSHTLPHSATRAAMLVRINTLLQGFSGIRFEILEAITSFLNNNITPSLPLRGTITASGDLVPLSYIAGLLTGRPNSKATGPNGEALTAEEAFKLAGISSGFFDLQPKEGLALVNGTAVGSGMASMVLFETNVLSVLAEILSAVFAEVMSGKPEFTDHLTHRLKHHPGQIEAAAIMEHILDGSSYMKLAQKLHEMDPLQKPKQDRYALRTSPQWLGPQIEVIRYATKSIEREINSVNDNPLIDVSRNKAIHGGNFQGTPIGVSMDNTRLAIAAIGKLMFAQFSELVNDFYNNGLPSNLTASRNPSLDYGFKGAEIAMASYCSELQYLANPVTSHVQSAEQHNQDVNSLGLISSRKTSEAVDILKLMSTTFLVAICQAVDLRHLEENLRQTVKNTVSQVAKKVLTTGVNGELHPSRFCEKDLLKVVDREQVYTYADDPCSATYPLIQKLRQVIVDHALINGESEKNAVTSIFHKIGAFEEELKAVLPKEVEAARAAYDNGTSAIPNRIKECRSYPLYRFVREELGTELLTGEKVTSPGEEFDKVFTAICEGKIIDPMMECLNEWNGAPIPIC
Sorghum bicolor SbPTAL variant H123F (SbPTAL^H123F) (Sorghum bicolor; H123F), sequence (chain, as listed by the source H123F H123F H123F): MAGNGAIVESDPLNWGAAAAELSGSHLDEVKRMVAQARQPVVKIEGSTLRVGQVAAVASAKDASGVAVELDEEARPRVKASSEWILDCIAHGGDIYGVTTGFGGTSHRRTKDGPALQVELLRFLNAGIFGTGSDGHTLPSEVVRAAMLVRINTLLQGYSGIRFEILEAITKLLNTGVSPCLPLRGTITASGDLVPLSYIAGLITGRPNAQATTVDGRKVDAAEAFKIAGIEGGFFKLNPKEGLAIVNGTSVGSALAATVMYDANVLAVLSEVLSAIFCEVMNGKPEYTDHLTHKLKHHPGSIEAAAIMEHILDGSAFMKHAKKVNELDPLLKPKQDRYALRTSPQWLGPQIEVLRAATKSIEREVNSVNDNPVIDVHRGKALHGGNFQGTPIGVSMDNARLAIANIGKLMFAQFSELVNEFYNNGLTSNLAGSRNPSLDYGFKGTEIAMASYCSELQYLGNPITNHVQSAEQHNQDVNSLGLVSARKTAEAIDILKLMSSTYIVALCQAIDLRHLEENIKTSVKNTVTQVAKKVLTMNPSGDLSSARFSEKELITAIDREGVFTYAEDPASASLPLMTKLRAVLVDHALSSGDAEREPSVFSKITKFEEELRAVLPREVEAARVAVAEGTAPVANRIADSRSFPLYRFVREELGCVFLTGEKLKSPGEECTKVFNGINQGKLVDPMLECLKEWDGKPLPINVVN
Brachypodium distachyon BdPTAL variant H123F (BdPTAL^H123F) (Brachypodium distachyon; H123F), sequence (chain, as listed by the source H123F H123F H123F): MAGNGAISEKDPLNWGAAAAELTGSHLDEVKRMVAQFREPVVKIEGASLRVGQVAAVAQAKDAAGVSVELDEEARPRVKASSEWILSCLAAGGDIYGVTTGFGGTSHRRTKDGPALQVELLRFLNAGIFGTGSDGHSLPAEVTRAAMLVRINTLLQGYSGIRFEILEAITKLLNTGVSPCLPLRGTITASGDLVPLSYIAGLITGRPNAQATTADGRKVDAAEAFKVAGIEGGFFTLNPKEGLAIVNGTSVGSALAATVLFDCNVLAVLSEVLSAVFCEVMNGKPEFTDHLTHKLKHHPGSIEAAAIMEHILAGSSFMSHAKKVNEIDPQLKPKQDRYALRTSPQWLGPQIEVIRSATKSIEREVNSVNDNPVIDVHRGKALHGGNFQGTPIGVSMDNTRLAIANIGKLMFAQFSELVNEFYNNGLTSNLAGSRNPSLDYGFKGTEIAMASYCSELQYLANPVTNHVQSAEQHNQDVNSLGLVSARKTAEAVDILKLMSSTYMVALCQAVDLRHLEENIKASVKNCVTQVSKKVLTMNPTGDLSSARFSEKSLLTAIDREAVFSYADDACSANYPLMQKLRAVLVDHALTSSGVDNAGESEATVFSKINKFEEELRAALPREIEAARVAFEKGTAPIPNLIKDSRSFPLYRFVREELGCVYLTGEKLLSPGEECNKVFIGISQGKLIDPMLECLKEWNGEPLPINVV
Arabidopsis thaliana AtPAL1 variant F144H/S114I (as printed in Table 3; AtPAL1^F144H_S116I, SEQ ID NO: 146, elsewhere) (Arabidopsis thaliana; F144H/S116I), sequence (chain, as listed by the source F144H S114I F144H S116I F144H S116I): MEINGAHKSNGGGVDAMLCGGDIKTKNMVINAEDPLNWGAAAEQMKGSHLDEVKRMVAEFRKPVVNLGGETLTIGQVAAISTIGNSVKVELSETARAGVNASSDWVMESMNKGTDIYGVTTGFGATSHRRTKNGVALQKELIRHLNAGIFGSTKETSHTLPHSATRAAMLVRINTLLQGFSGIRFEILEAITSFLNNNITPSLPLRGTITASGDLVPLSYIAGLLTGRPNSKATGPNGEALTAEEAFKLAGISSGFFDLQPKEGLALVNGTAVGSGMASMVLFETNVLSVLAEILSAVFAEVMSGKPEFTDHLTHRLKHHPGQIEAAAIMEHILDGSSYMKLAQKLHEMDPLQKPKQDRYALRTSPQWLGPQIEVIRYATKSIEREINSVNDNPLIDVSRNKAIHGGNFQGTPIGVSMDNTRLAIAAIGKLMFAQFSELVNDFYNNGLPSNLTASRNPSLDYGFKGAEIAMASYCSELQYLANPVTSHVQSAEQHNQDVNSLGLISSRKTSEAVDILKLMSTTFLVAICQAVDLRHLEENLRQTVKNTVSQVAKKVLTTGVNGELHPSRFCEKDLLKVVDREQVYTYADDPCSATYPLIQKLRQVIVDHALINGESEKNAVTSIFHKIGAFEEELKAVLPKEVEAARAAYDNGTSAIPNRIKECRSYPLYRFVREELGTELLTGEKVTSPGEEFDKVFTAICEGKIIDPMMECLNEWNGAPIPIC
Brachypodium distachyon BdPTAL, wild type (Brachypodium distachyon), sequence (chain, as listed by the source): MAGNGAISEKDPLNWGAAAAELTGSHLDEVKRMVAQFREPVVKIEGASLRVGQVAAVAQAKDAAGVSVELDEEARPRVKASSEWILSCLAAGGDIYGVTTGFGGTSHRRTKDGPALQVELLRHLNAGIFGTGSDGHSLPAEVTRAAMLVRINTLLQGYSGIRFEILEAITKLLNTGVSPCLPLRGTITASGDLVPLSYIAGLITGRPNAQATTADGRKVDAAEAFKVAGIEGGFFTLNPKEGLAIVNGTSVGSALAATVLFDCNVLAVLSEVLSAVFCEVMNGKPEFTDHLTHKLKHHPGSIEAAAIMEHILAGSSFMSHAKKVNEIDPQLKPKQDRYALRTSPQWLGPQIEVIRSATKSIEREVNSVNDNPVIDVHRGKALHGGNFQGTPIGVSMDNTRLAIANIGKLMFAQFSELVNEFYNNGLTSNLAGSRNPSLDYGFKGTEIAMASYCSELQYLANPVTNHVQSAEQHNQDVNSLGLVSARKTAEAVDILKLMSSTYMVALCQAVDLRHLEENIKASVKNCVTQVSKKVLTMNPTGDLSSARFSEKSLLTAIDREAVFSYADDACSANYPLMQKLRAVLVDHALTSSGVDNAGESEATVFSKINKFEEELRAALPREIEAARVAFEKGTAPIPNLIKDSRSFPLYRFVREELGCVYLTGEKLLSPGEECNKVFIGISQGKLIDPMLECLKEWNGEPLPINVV
Arabidopsis thaliana AtPAL1, wild type, SEQ ID NO: 144 (Arabidopsis thaliana), sequence (chain, as listed by the source): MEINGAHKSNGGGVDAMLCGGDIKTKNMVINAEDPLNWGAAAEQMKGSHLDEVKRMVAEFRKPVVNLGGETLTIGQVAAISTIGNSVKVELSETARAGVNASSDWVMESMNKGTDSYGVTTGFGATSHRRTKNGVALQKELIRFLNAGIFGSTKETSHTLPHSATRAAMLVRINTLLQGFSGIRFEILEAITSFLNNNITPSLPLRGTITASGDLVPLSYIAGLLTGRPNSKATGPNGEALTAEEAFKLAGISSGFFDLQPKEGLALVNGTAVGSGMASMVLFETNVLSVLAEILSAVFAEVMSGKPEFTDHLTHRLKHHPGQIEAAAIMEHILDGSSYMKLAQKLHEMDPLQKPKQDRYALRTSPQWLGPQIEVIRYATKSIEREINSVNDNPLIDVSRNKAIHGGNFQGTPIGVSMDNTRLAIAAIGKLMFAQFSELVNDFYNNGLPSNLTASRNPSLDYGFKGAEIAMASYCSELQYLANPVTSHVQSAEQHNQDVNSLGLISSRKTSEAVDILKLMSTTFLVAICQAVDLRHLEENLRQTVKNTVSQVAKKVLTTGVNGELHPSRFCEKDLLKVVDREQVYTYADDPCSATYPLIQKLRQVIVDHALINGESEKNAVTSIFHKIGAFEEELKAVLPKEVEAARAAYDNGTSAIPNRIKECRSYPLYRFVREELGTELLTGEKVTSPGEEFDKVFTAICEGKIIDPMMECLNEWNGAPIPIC

“Brachypodium distachyon BdPTAL, wild type (Brachypodium distachyon)” gave a Km (N[C@@H](Cc1ccccc1)C(=O)O [1]) of 216.6 ± 10.3 µM, a kcat (N[C@@H](Cc1ccccc1)C(=O)O [1]) of 1.05 ± 0.05 s⁻¹ and a kcat/Km (N[C@@H](Cc1ccccc1)C(=O)O [1]) of 4840 ± 110 M⁻¹ s⁻¹.
“Arabidopsis thaliana AtPAL1 variant S114I (as printed in Table 3; AtPAL1^S116I, SEQ ID NO: 260, elsewhere) (Arabidopsis thaliana; S116I)” showed a Km [2] of 515.4 ± 54.3 µM, a kcat [2] of 0.02 ± 0.00 s⁻¹ and a kcat/Km [2] of 40 ± 0 M⁻¹ s⁻¹. For the same substance, the Km (N[C@@H](Cc1ccccc1)C(=O)O [3]) was 10.1 ± 1.9 µM, the kcat (N[C@@H](Cc1ccccc1)C(=O)O [3]) was 0.23 ± 0.00 s⁻¹ and the kcat/Km (N[C@@H](Cc1ccccc1)C(=O)O [3]) was 23710 ± 4630 M⁻¹ s⁻¹.
“Arabidopsis thaliana AtPAL1 variant F144H (AtPAL1^F144H), SEQ ID NO: 261 (Arabidopsis thaliana; F144H)” gave a Km (N[C@@H](Cc1ccccc1)C(=O)O [3]) of 1198.9 ± 21.1 µM, a kcat (N[C@@H](Cc1ccccc1)C(=O)O [3]) of 1.58 ± 0.04 s⁻¹ and a kcat/Km (N[C@@H](Cc1ccccc1)C(=O)O [3]) of 1320 ± 20 M⁻¹ s⁻¹.
With “Arabidopsis thaliana AtPAL1 variant F144H/S114I (as printed in Table 3; AtPAL1^F144H_S116I, SEQ ID NO: 146, elsewhere) (Arabidopsis thaliana; F144H/S116I)” the Km (N[C@@H](Cc1ccccc1)C(=O)O [3]) was 87.3 ± 2.9 µM, the kcat (N[C@@H](Cc1ccccc1)C(=O)O [3]) was 0.88 ± 0.01 s⁻¹ and the kcat/Km (N[C@@H](Cc1ccccc1)C(=O)O [3]) was 10070 ± 440 M⁻¹ s⁻¹.
“Brachypodium distachyon BdPTAL variant H123F (BdPTAL^H123F) (Brachypodium distachyon; H123F)” showed a Km [4] of 765.2 ± 65.8 µM, a kcat [4] of 0.03 ± 0.00 s⁻¹ and a kcat/Km [4] of 40 ± 0 M⁻¹ s⁻¹. It also gave a Km (N[C@@H](Cc1ccccc1)C(=O)O [5]) of 6.0 ± 1.4 µM, a kcat (N[C@@H](Cc1ccccc1)C(=O)O [5]) of 0.17 ± 0.00 s⁻¹ and a kcat/Km (N[C@@H](Cc1ccccc1)C(=O)O [5]) of 29920 ± 6750 M⁻¹ s⁻¹.
With “Arabidopsis thaliana AtPAL1, wild type, SEQ ID NO: 144 (Arabidopsis thaliana)” the Km (N[C@@H](Cc1ccccc1)C(=O)O [3]) was 52.2 ± 3.1 µM, the kcat (N[C@@H](Cc1ccccc1)C(=O)O [3]) was 1.42 ± 0.07 s⁻¹ and the kcat/Km (N[C@@H](Cc1ccccc1)C(=O)O [3]) was 27310 ± 850 M⁻¹ s⁻¹.
With “Sorghum bicolor SbPTAL variant H123F (SbPTAL^H123F) (Sorghum bicolor; H123F)” the Km [6] was 750.7 ± 36.8 µM, the kcat [6] was 0.03 ± 0.00 s⁻¹ and the kcat/Km [6] was 40 ± 0 M⁻¹ s⁻¹. The Km (N[C@@H](Cc1ccccc1)C(=O)O [7]) was 3.8 ± 2.0 µM, the kcat (N[C@@H](Cc1ccccc1)C(=O)O [7]) was 0.10 ± 0.00 s⁻¹ and the kcat/Km (N[C@@H](Cc1ccccc1)C(=O)O [7]) was 30970 ± 13700 M⁻¹ s⁻¹.
For “Sorghum bicolor SbPTAL, wild type (Sorghum bicolor)”, the Km (N[C@@H](Cc1ccccc1)C(=O)O [8]) was 150.1 ± 14.4 µM, the kcat (N[C@@H](Cc1ccccc1)C(=O)O [8]) was 0.69 ± 0.01 s⁻¹ and the kcat/Km (N[C@@H](Cc1ccccc1)C(=O)O [8]) was 4630 ± 490 M⁻¹ s⁻¹.
